Experimental data as given in PMC12915131 (2025).

Target: Chlamydia psittaci BioE (Chlamydia psittaci)
Test: SPR

B1: stearoyl-ACP (E. coli acyl carrier protein carrying a C18 acyl group) (natural protein)
chain: STIEERVKKIIGEQLGVKQEEVTNNASFVEDLGADSLDTVELVMALEEEFDTEIPDEEAEKITTVQAAIDYINGHQA
modifications: holo-ACP carrying a stearoyl (C18) group, made with VhAasS
With B1 the koff was 0.00316 s⁻¹.
